For test [1], the target named is biotinylated PD-L1 (Homo sapiens (assumed)) (UniProt Q9NZQ7). Kind of test: ELISA.
Test [2] has the same target. Kind of test: ELISA. The source holds these as a separate data set.

Where two headings read alike, the source gives them in different places.

Broadly, the EC50 is the midpoint of the concentration-response curve.

Sequence of UniProt Q9NZQ7 (Q9NZQ7 19-290): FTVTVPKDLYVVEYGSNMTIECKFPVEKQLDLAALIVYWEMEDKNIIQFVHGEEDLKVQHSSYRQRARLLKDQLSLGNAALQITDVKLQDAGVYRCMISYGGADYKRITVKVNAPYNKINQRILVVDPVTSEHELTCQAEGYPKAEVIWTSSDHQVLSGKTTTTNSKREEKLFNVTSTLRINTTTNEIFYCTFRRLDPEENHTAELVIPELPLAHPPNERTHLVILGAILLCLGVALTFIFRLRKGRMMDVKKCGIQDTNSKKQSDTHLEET

With avelumab (antibody), the EC50 in test [1] amounted to 0.098 nM; in test [2], 0.015 nM.

(Values after paper PMC9278964.)
